Data reported in the supplement of paper PMC9732359.
± gives the uncertainty stated by the source.

Assay: protein stability index of a GFP-peptide fusion (yeast GPS) (PSI 1-4); higher = more stable; sorted into four equal gates, so the index is relative within each strain
Summary of the method: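 For each peptide, the protein stability index sums the read frequency in every gate after multiplying it by the gate number. Read frequencies came from plasmids that were PCR-amplified from each gate and Illumina-sequenced, with reads assigned to strains by barcodes. The gates were four equal bins of GFP/Cherry fluorescence ratio applied to mid-log yeast in leucine-free medium carrying a pooled library of tiled 17-residue yeast protein peptides fused downstream of GFP on a Cherry-expressing plasmid.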

KDHLLGRLASTIAKQVL [RPL16B]
protein stability index (doa10∆): 1.66 ± 0.085 | protein stability index (pdr5∆): 1.57 ± 0.092 | protein stability index (san1∆): 1.25 ± 0.14 | protein stability index (ubr1∆): 1.3 ± 0.066

TAASVFKELCYENKDNL [PRE3]
protein stability index (doa10∆): 2.67 ± 0.051 | protein stability index (pdr5∆): 2.45 ± 0.047 | protein stability index (san1∆): 2.38 ± 0.058 | protein stability index (ubr1∆): 2.17 ± 0.054

DSDKGSKLNELKKELKL [SMC2]
protein stability index (doa10∆): 3.56 ± 0.18 | protein stability index (pdr5∆): 3.02 ± 0.23 | protein stability index (ubr1∆): 3.33 ± 0.17

NSASNNGNLTSNQLISN [SWI1]
protein stability index (doa10∆): 1.96 ± 0.084 | protein stability index (pdr5∆): 2.14 ± 0.078 | protein stability index (san1∆): 2.45 ± 0.11 | protein stability index (ubr1∆): 2.75 ± 0.056

CESCSTILCTPTGGKAK [RPS27A]
protein stability index (doa10∆): 1.93 ± 0.046 | protein stability index (pdr5∆): 2.32 ± 0.046 | protein stability index (san1∆): 2.1 ± 0.055 | protein stability index (ubr1∆): 2.18 ± 0.037

STIITKAINQELEDVAV [YCS4]
protein stability index (doa10∆): 2.96 ± 0.23 | protein stability index (pdr5∆): 3.22 ± 0.11 | protein stability index (san1∆): 2.72 ± 0.057 | protein stability index (ubr1∆): 3.04 ± 0.061

GRSWDGKEHIVAALVSL [ECM29]
protein stability index (doa10∆): 1.88 ± 0.052 | protein stability index (pdr5∆): 2.1 ± 0.063 | protein stability index (san1∆): 1.56 ± 0.082 | protein stability index (ubr1∆): 1.65 ± 0.042

SVERGRKRAHSLVSTQS [REC8]
protein stability index (doa10∆): 3.21 ± 0.082 | protein stability index (pdr5∆): 3.12 ± 0.066 | protein stability index (san1∆): 3.26 ± 0.047 | protein stability index (ubr1∆): 3.16 ± 0.042

LQAFGESESTTNVYSKD [RPB3]
protein stability index (doa10∆): 2.08 ± 0.081 | protein stability index (pdr5∆): 2.1 ± 0.06 | protein stability index (san1∆): 1.68 ± 0.076 | protein stability index (ubr1∆): 1.72 ± 0.041

LCTLNDSKGSLYSVKFA [YGL100W/SEH1]
protein stability index (doa10∆): 2.94 ± 0.13 | protein stability index (pdr5∆): 2.84 ± 0.093 | protein stability index (san1∆): 2.62 ± 0.058 | protein stability index (ubr1∆): 2.49 ± 0.071

PDLNIDRNNSTNQIFQS [SIN4]
protein stability index (doa10∆): 3.1 ± 0.29 | protein stability index (san1∆): 2.7 ± 0.21 | protein stability index (ubr1∆): 2.19 ± 0.15

HARGGGAISAVAATNTP [SRP54]
protein stability index (doa10∆): 1.69 ± 0.12 | protein stability index (pdr5∆): 2.35 ± 0.12 | protein stability index (san1∆): 3.07 ± 0.12 | protein stability index (ubr1∆): 2.3 ± 0.12

FLGEQVNEPTKNEEAEI [RPN1]
protein stability index (ubr1∆): 3.56 ± 0.26

TSKSLVKRYRLAPTQLS [SIN4]
protein stability index (doa10∆): 2.63 ± 0.06 | protein stability index (pdr5∆): 2.26 ± 0.051 | protein stability index (san1∆): 2.11 ± 0.077 | protein stability index (ubr1∆): 2.66 ± 0.037

LSTRELAGKVGSIRVHK [RPC53]
protein stability index (doa10∆): 1.61 ± 0.18 | protein stability index (pdr5∆): 1.26 ± 0.11

YLCFILSTRAGGLGLNL [SNF2]
protein stability index (doa10∆): 2.32 ± 0.08 | protein stability index (pdr5∆): 2.04 ± 0.095 | protein stability index (san1∆): 2.19 ± 0.12 | protein stability index (ubr1∆): 2.6 ± 0.11

PSKDSFTKYKPARSSSL [YAR002W/NUP60]
protein stability index (doa10∆): 2.15 ± 0.043 | protein stability index (pdr5∆): 2.59 ± 0.044 | protein stability index (san1∆): 2.44 ± 0.053 | protein stability index (ubr1∆): 2.77 ± 0.04

KGQGPFTLTYDIIETFS [YMR129W/POM152]
protein stability index (doa10∆): 1.95 ± 0.045 | protein stability index (pdr5∆): 2.31 ± 0.064 | protein stability index (san1∆): 2.02 ± 0.057 | protein stability index (ubr1∆): 2.48 ± 0.044

VTKEYFQDVYDLTGSEP [FAS1]
protein stability index (doa10∆): 2.53 ± 0.23 | protein stability index (pdr5∆): 2.82 ± 0.078 | protein stability index (san1∆): 1.43 ± 0.18 | protein stability index (ubr1∆): 2.68 ± 0.092

QSSGKLKEYLDLVARTA [YDL116W/NUP84]
protein stability index (doa10∆): 2.63 ± 0.23 | protein stability index (pdr5∆): 2.88 ± 0.16 | protein stability index (san1∆): 3.01 ± 0.099 | protein stability index (ubr1∆): 2.74 ± 0.15

PVIDYELKEITSLPDWC [BRR2]
protein stability index (doa10∆): 2.8 ± 0.099 | protein stability index (pdr5∆): 2.78 ± 0.086 | protein stability index (san1∆): 3.1 ± 0.086 | protein stability index (ubr1∆): 3.05 ± 0.048

DTSLCINGEPSIHVNRV [RRI1]
protein stability index (doa10∆): 2.99 ± 0.081 | protein stability index (pdr5∆): 3.04 ± 0.073 | protein stability index (san1∆): 2.99 ± 0.053 | protein stability index (ubr1∆): 3.04 ± 0.05

FNEKFPSLIQEEEEDTT [NUT1]
protein stability index (doa10∆): 2.78 ± 0.086 | protein stability index (pdr5∆): 3.15 ± 0.093 | protein stability index (san1∆): 3.06 ± 0.074 | protein stability index (ubr1∆): 3.06 ± 0.078

SKSENPVLSTIAFLVGL [SWI3]
protein stability index (doa10∆): 3.01 ± 0.11 | protein stability index (pdr5∆): 2.54 ± 0.085 | protein stability index (san1∆): 2.26 ± 0.1 | protein stability index (ubr1∆): 2.43 ± 0.057

FKQAKERVMKNKVEENL [RPT2]
protein stability index (doa10∆): 3.11 ± 0.11 | protein stability index (pdr5∆): 3.27 ± 0.061 | protein stability index (san1∆): 3 ± 0.14 | protein stability index (ubr1∆): 3.29 ± 0.11

EITDAYCFAKNDLFFNN [YMR129W/POM152]
protein stability index (doa10∆): 2.59 ± 0.059 | protein stability index (pdr5∆): 2.56 ± 0.063 | protein stability index (san1∆): 2.22 ± 0.071 | protein stability index (ubr1∆): 2.61 ± 0.056

VVDGTVVSCSQHGFEVQ [RPB7]
protein stability index (doa10∆): 3.08 ± 0.071 | protein stability index (pdr5∆): 3.11 ± 0.058 | protein stability index (san1∆): 3.13 ± 0.068 | protein stability index (ubr1∆): 3.28 ± 0.07

LEQIQVQLKDANSQIQA [YIL149C/MLP2]
protein stability index (doa10∆): 2.55 ± 0.12 | protein stability index (pdr5∆): 2.41 ± 0.27 | protein stability index (san1∆): 2.45 ± 0.21 | protein stability index (ubr1∆): 2.43 ± 0.15

QDSILIIYPRSQTTLVQ [ARP9]
protein stability index (doa10∆): 2.6 ± 0.16 | protein stability index (pdr5∆): 1.81 ± 0.064 | protein stability index (san1∆): 2.23 ± 0.079 | protein stability index (ubr1∆): 2.46 ± 0.067

IALRNGQSSVKHEDFVE [RPT5]
protein stability index (doa10∆): 2.89 ± 0.19 | protein stability index (san1∆): 3.23 ± 0.14 | protein stability index (ubr1∆): 3.41 ± 0.16

DPLLAGLGETSGDNHTQ [RPT4]
protein stability index (doa10∆): 2.77 ± 0.26 | protein stability index (pdr5∆): 3.43 ± 0.21 | protein stability index (san1∆): 3.5 ± 0.19 | protein stability index (ubr1∆): 3.25 ± 0.16

KVTQMTPAPKISYKKGA [RPL36B]
protein stability index (doa10∆): 3.12 ± 0.13 | protein stability index (pdr5∆): 3.27 ± 0.11 | protein stability index (san1∆): 3.31 ± 0.061 | protein stability index (ubr1∆): 3.21 ± 0.1

ETLAYNSLKETLQDFHL [SNF2]
protein stability index (doa10∆): 2.88 ± 0.054 | protein stability index (pdr5∆): 3.04 ± 0.058 | protein stability index (san1∆): 2.61 ± 0.055 | protein stability index (ubr1∆): 2.7 ± 0.042

VNDSVISAPSMEDEILS [BRN1]
protein stability index (doa10∆): 2.05 ± 0.1 | protein stability index (pdr5∆): 2.29 ± 0.089 | protein stability index (san1∆): 2.41 ± 0.11 | protein stability index (ubr1∆): 2.86 ± 0.073

PTVHNSTAAAPIAAPKK [PGD1]
protein stability index (doa10∆): 2.81 ± 0.065 | protein stability index (pdr5∆): 3.08 ± 0.071 | protein stability index (san1∆): 2.83 ± 0.052 | protein stability index (ubr1∆): 3.072 ± 0.029

GARFDDGAGGDNEVQRT [RPT1]
protein stability index (doa10∆): 3.58 ± 0.2 | protein stability index (pdr5∆): 3.4 ± 0.26 | protein stability index (san1∆): 3.47 ± 0.24 | protein stability index (ubr1∆): 3.52 ± 0.083

QWGKYQTFGVDILAKLF [SWI1]
protein stability index (doa10∆): 2.25 ± 0.079 | protein stability index (pdr5∆): 2.54 ± 0.063 | protein stability index (san1∆): 2.43 ± 0.062 | protein stability index (ubr1∆): 2.27 ± 0.053

KDIKANLSSNVNFTEIG [YCS4]
protein stability index (doa10∆): 2.83 ± 0.043 | protein stability index (pdr5∆): 2.74 ± 0.051 | protein stability index (san1∆): 2.77 ± 0.05 | protein stability index (ubr1∆): 2.77 ± 0.039

MSGAAAASAAGYDRHIT [SCL1]
protein stability index (doa10∆): 3.08 ± 0.24 | protein stability index (pdr5∆): 2.87 ± 0.16 | protein stability index (san1∆): 3.27 ± 0.12 | protein stability index (ubr1∆): 2.94 ± 0.14

ATIRETYEIICDQTKSV [RRP43]
protein stability index (doa10∆): 2.87 ± 0.06 | protein stability index (pdr5∆): 3 ± 0.065 | protein stability index (san1∆): 2.8 ± 0.063 | protein stability index (ubr1∆): 2.98 ± 0.045

RAVLKSFLESVIRDSVT [HHF1]
protein stability index (doa10∆): 2.62 ± 0.063 | protein stability index (pdr5∆): 2.44 ± 0.052 | protein stability index (san1∆): 1.86 ± 0.063 | protein stability index (ubr1∆): 2.12 ± 0.049

VPYVLMGQIATFIYFAY [COB]
protein stability index (doa10∆): 1.38 ± 0.1 | protein stability index (pdr5∆): 1.23 ± 0.1 | protein stability index (san1∆): 1.17 ± 0.16 | protein stability index (ubr1∆): 1.28 ± 0.078

GLGVLTHRNKDGTGVRV [FAS1]
protein stability index (doa10∆): 3.12 ± 0.066 | protein stability index (pdr5∆): 2.47 ± 0.094 | protein stability index (san1∆): 3.58 ± 0.082 | protein stability index (ubr1∆): 3.27 ± 0.085

TDLHLPKKEYDDDAVRR [NSL1]
protein stability index (doa10∆): 1.99 ± 0.13 | protein stability index (pdr5∆): 2.25 ± 0.12 | protein stability index (san1∆): 1.42 ± 0.24 | protein stability index (ubr1∆): 3.13 ± 0.11

TYRSRAQQVPPYGVYHP [SIN4]
protein stability index (doa10∆): 2.77 ± 0.1 | protein stability index (pdr5∆): 2.13 ± 0.085 | protein stability index (san1∆): 2.8 ± 0.063 | protein stability index (ubr1∆): 2.71 ± 0.078

PPLTYKNDTKILVLALE [PRP8]
protein stability index (doa10∆): 2.58 ± 0.057 | protein stability index (pdr5∆): 2.48 ± 0.043 | protein stability index (san1∆): 2.52 ± 0.055 | protein stability index (ubr1∆): 2.04 ± 0.029

RRIPKRMRNRALREMRK [POP1]
protein stability index (doa10∆): 3.26 ± 0.11 | protein stability index (pdr5∆): 2.45 ± 0.058 | protein stability index (san1∆): 3.34 ± 0.078 | protein stability index (ubr1∆): 2.88 ± 0.13

FKLGKFNYVAVGDVSNL [QCR2]
protein stability index (doa10∆): 3.28 ± 0.1 | protein stability index (pdr5∆): 2.01 ± 0.1 | protein stability index (san1∆): 2.38 ± 0.14 | protein stability index (ubr1∆): 2.83 ± 0.068

YVPTRNTFNYDVKISND [RPN4]
protein stability index (doa10∆): 1.85 ± 0.068 | protein stability index (pdr5∆): 2.3 ± 0.065 | protein stability index (san1∆): 2.29 ± 0.078 | protein stability index (ubr1∆): 2.25 ± 0.056

GFSFGSQLGGNKTVNEA [YJL041W/NSP1]
protein stability index (doa10∆): 3.18 ± 0.072 | protein stability index (pdr5∆): 3.23 ± 0.074 | protein stability index (san1∆): 3.32 ± 0.048 | protein stability index (ubr1∆): 3.22 ± 0.048

KVISNPLLARKQFVVDV [RPS24A]
protein stability index (doa10∆): 1.95 ± 0.088 | protein stability index (pdr5∆): 1.94 ± 0.048 | protein stability index (san1∆): 2.14 ± 0.076 | protein stability index (ubr1∆): 2.07 ± 0.05

FFNGKALNNAIPGGPKF [PRP8]
protein stability index (doa10∆): 3.29 ± 0.13 | protein stability index (pdr5∆): 3.02 ± 0.16 | protein stability index (san1∆): 2.87 ± 0.17 | protein stability index (ubr1∆): 2.94 ± 0.1

EVAQYLQEIYQTDAIKS [RPN5]
protein stability index (doa10∆): 2.3 ± 0.084 | protein stability index (pdr5∆): 2.44 ± 0.099 | protein stability index (san1∆): 2.47 ± 0.1 | protein stability index (ubr1∆): 2.29 ± 0.13
